# Assay results as given in patent publication US20090092602A1 (published 2009).
# B1: hOAT (humanized IgG One Anti-Tissue Factor antibody) (antibody)
# heavy: not shown
# light: DIQMTQSPASLSASVGDRVTITCLASQTIDTWLAWYLQKPGKSPQLLIYAATNLADGVPSRFSGSGSGTDFSFTISSLQPEDFATYYCQQVYSSPFTFGQGTKLEIKRTVAAPSVFIFPPSDEQLKSGTASVVCLLNNFYPREAKVQWKVDNALQSGNSQESVTEQDSKDSTYSLSSTLTLSKADYEKHKVYACEVTHQGLSSPVTKSFNRGEC
# B2: hFAT (humanized IgG Four Anti-Tissue Factor antibody) (antibody)
# heavy: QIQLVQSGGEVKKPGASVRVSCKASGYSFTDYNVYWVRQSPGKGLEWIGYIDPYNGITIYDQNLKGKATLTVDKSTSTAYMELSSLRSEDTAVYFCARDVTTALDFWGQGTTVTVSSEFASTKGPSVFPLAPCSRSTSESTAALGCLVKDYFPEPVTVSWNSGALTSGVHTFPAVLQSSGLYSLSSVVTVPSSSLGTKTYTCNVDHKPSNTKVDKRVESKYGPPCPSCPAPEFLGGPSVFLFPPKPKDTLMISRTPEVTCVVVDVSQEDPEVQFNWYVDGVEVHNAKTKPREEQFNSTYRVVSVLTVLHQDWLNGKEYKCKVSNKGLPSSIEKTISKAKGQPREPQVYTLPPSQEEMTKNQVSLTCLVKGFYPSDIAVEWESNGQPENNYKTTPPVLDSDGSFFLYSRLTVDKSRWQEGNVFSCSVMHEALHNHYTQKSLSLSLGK
# light: B1 light
# notes: also called humanized cH36-IgG4; HC08 + LC09 IgG4 kappa
# B3: cH36 chimeric anti-tissue factor antibody (antibody, human IgG4, V domains shown)
# VH: EIQLQQSGPELVKPGASVQVSCKTSGYSFTDYNVYWVRQSHGKSLEWIGYIDPYNGITIYDQNFKGKATLTVDKSSTTAFMHLNSLTSDDSAVYFCARDVTTALDFWGQGTTLTVSS
# VL: DIQMTQSPASQSASLGESVTITCLASQTIDTWLAWYQQKPGKSPQLLIYAATNLADGVPSRFSGSGSGTKFSFKISSLQAEDFVNYYCQQVYSSPFTFGAGTKLELK
# notes: Mouse-human chimera; also called Sunol-cH36; chimeric H36
# B4: H36.D2.B7 murine anti-tissue factor monoclonal antibody (antibody, mouse IgG2a, V domains shown)
# VH: B3 VH
# VL: B3 VL
# Molecular target: T1, lipidated recombinant human tissue factor (Innovin) (human, UniProt P13726 33-295, limits assumed)
# Assay: cell-based or functional assay
Binder,PT Time (in seconds) at 12.9 nM antibody (12.2 s at 0 nM),PT Time (in seconds) at 25.8 nM antibody (12.2 s at 0 nM),PT Time (in seconds) at 51.6 nM antibody (12.2 s at 0 nM)
B1,18.9 s,33.7 s,82.1 s
B2,20.5 s,41.7 s,94.8 s
B3,19.8 s,40 s,101 s

# Molecular target: T1, lipidated recombinant human tissue …
# Assay: cell-based or functional assay
# Remark: another data set of the same source
row,Binder,inhibition of TF function in PT assay at above 12.9 nM antibody
1,B1,~95%
2,B2,~95%
3,B3,~95%

# Molecular target: T2, recombinant human tissue factor (human, UniProt P13726 33-251, limits assumed)
# T2 construct: also called TF; human TF
# Assay: SPR (BIAcore), recombinant human TF immobilized on CM5 chip, antibody 0.125-1 nM; apparent Ka
# Protocol: (§1) The affinity of humanized anti-TF antibody for TF was determined by surface plasmon resonance (BIAcore from Pharmacia Biosensor) with recombinant human tissue factor covalently immobilized on a CM5 sensor chip.
row,Binder,Ka
1,B2,2.99e+09 M⁻¹
2,B3,7.94e+09 M⁻¹
3,B4,1.56e+10 M⁻¹

# Molecular target: T2, recombinant human tissue factor
# Assay: SPR (BIAcore), recombinant human TF immobilized on CM5 chip, antibody 0.125-1 nM; apparent Kd
# Protocol: as §1
row,Binder,Kd
1,B2,0.335 nM
2,B3,0.126 nM
3,B4,0.064 nM
